Results taken from publication PMC12067460, “Probing the ferredoxin:hydrogenase electron transfer complex by infrared difference spectroscopy†” (Chemical Science, 2025).
Where no end group is shown, it is not given here.

Tests used:
[1] = target: clostridial 2[4Fe-4S] ferredoxin CpFd from Clostridium pasteurianum, wild type (holo) (Clostridium pasteurianum) (UniProt P00195); assay: MST; anaerobic; reducing conditions (dithionite); ferredoxin labelled with Alexa Fluor 647
[2] = target: ferredoxin PetF from Chlamydomonas reinhardtii, wild type, Alexa Fluor 647-labeled (Chlamydomonas reinhardtii) (UniProt P07839); assay: MST; labeled PetF (200 nM) titrated with unlabeled CrHydA1 (0.003–10 µM) with 2 mM dithionite under anaerobic conditions; read-out: concentration-dependent fluorescence quenching of the Alexa Fluor 647 label; 50 mM TRIS pH 8, 50 mM NaCl, 1 mM MgCl2, 0.05 mg/mL BSA, 0.05% Tween20; Monolith NT.115, 22°C
[3] = target: Y3pCNF-CpFd, ferredoxin CpFd from Clostridium pasteurianum with tyrosine Y3 replaced by 4-cyano-L-phenylalanine (holo) (Clostridium pasteurianum) (UniProt P00195); assay: MST; anaerobic; reducing conditions (dithionite); ferredoxin labelled with Alexa Fluor 647
[4] = target: T1, [FeFe]-hydrogenase CpI from Clostridium pasteurianum (Clostridium pasteurianum, UniProt P29166 1-574); assay: as above; conditions: both partners purified
T1 construct: [FeFe]-hydrogenase CpI of Clostridium pasteurianum, with H-domain (H-cluster) and F-domain (three [4Fe-4S] clusters, one [2Fe-2S] cluster)
T1 sequence: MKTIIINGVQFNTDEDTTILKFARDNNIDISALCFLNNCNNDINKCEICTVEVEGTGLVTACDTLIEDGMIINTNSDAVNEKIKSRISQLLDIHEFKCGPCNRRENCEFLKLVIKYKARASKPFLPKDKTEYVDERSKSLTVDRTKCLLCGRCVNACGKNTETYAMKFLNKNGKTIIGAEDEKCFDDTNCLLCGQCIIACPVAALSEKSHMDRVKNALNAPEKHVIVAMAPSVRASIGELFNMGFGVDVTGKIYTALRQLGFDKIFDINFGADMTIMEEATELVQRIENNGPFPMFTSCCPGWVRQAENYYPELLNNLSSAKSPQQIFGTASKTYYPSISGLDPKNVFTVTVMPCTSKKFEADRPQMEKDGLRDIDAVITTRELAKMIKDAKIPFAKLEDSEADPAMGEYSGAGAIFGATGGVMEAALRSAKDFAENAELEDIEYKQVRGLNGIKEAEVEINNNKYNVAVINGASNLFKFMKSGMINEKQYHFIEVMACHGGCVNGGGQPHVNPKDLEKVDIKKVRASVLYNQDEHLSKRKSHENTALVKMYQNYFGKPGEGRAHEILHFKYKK

Work on “[FeFe]-hydrogenase CrHydA1 from Chlamydomonas reinhardtii (enzyme)” yielded a Kd [1] of 2.41 µM and a Kd [2] of 1.24 µM.

“[FeFe]-hydrogenase CpI from Clostridium pasteurianum (from UniProt P29166 1-574) (enzyme)” gave a Kd [3] of 11.3 µM.

B1: clostridial 2[4Fe-4S] ferredoxin CpFd from Clostridium pasteurianum, wild type (holo) (natural protein)
chain: AYKIADSCVSCGACASECPVNAISQGDSIFVIDADTCIDCGNCANVCPVGAPVQE
modifications: cysteine pairing not given here; also: Alexa Fluor 647 dye label, site not given here, binds two [4Fe-4S] clusters (F and F')
notes: Ferredoxin CpFd of Clostridium pasteurianum, 2[4Fe-4S] type, wild type; Tested reduced (with dithionite) and oxidized (without dithionite); the redox state is told by the assay; also called wild-type CpFd; holo-CpFd; source: E. coli C321.ΔA.opt
B1 gave a Kd [4] of 12.4 ± 0.97 µM.
